In patent publication US20240239907A1 (EDELWEISS IMMUNE, published 2024):

target: T1, human CXCR6 (human, UniProt O00574 1-342); experiment: screening on cells overexpressing CXCR6, one single concentration, yes/no
T1 construct: also called hu-CXCR6; wild type human CXCR6
T1 sequence (O00574 whole entry): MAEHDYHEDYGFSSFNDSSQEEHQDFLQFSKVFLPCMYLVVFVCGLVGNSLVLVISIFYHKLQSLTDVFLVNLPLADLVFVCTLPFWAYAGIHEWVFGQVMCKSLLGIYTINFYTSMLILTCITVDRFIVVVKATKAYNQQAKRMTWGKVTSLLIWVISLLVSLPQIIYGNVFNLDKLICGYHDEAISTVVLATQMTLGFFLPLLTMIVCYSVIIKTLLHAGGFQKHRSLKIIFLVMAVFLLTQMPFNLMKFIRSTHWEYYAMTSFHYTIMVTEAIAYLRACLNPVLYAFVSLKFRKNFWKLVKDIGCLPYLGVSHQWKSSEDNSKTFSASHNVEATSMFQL

Binder	binding result
Beacon2-D5 (antibody, V domains shown, Mouse-derived; tested at the screening stage) VH: EVQLVESGGGLVQPKGSLKLSCAASGFTFNTYAMNWVRQAPGKGLEWVARIRSKSNNYATYYADSVKDRFTISRDDSQSMLYLQMNNLKTEDTAMYYCLSHGAFAYWGQGTLVTVSA VL: not shown	binds
CNE-6E10 (antibody, V domains shown, Mouse-derived) VH: EVQLVESGGGLVQPKGSLKLSCAASGFSFNTYAMNWVRQAPGKGLEWVARIRSKTNSYETYYADSVKDRFTISRDDSESMLYLQMNNLKTEDTAVYYCLSHGAFAYWGQGTLVTVSA VL: not shown	binds
CNE-6H7-G7 (antibody, V domains shown, Mouse-derived; tested at the screening stage) VH: EVQLVESGGGLVQPKGSLKLSCAASGFSFNTYAMNWVRQAPGKGLEWVARIRSKSNNYGTYYADSVKDRFTISRDDSESMLYLKMNNLKTEDTAMYYCLSHGSSAYWGQGTLVTVSA VL: not shown	binds
CNF-2F8 (antibody, V domains shown, Mouse-derived; tested at the screening stage) VH: EVQLVESGGGLVQPKGSLKLSCAASGFSFQTYAMNWVRQAPGKGLEWVARIRSKRNNYATYYADSVKDRFSISRDDSENMLYLQMNNLKTEDTAMYYCLSHGAFAYWGQGTLVTVSA VL: not shown	binds
CNGs-1C1 (antibody, V domains shown, Mouse-derived; tested at the screening stage) VH: EVQLVESGGGLVRPKGSLKLSCAASGFSFNAYAMNWVRQAPGKGLEWVARIRSKSNNYATYYADSVKDRFTISRDDSESMLYLQMNNLKTEDTAMYYCLSHGAFAYWGQGTLVTVSA VL: not shown	binds
CNGs-1B7 (antibody, V domains shown, Mouse-derived) VH: EVKLEESGGGLVRPGGSMKLSCVASGFTFSDYWMNWVRQSPEKGLEWLAQIRLNSGNYAARYAESVKGRFTISRDDSKNSVYLQMINLRAEDTGIYFCTSNAWLANWGQGTLVTVSA VL: DIVMTQTAPSVPVTPGESVSISCRSSKSLLHSNGNTYLYWFLQRPGQSPQRLIYSVSNLASGVPDRFSGRGSGTDFTLTISRVEAEDVGVYYCMQSLEYPYTFGGGTKLEIK	binds
COXs-1B10 (antibody, V domains shown, Mouse antibody) VH: QVTLKESGPGILKASQTLSLTCSFSGFSLSTSGMGIGWIRQPSGKGPEWLAHIWWDDEKYYRPSLKSRLTVSKDTSRNQVFLNITSVDTTDSASYYCVQRTPGRFAYWGQGTLVTVST VL: DIVMTQSPSSLAVSIGQKVIMSCKSSQSLLSSRTQKNYLAWYQQKPGQSPKLLVYFASIRESGVPDRFTGSGSGTDFTLTISTVQAEDLAVYYCQQYFLTPYTFGGGTKLEIK	binds
COXs-2D2 (antibody, V domains shown, Mouse-derived) VH: EVQLVESGGGLVQPKGSLKLSCTASGFSFDTYAMNWVRQAPGKGLEWIARIRSKSKNYATYYADSVKDRFTISRDDSANILYLQMNNLKTEDTAIYYCLRQGSFDYWGQGTTLTVSS VL: DVVLTQTPLSLPVSLGDQASISCRSGQRIVHTDGNTYLYWYLQKPGQSPKLLIYRVSNRFSGVPDRFSGSGSGTDFTLKISRVEAEDMGIYYCFQGTHFPYTFGGGTKLEIK	binds
COXs-2D4 (antibody, V domains shown, Mouse-derived; tested at the screening stage) VH: EVHLVESGGGLVQPKGSLKLSCTASGFSFDTYAMNWVRQAPGKGLEWIARIRSKSKNSATYYADSVKDRFTISRDDSANILYLQMNNLKTEDTAIYYCLRQGSFDYWGQGTTLTVSS VL: DVVMTQTPLSLPVSLGDQASISCRSSQRIVHTDGNTYLYWYLQKPGQSPKLLIYRVSNRFSGVPDRFSGSGSGTDFTLKITRVEAEDMGIYYCFQGTHFPYTFGGGTKLEIK	binds
Beacon1-G12 (antibody, V domains shown, Mouse-derived) VH: EIQLVQSGPELKKPGKTVKISCKASGYTFTTYGMSWVKQAPGKALKWMGWINTYSGVPTYADDFKGRFAFSLETSASTAYLQINNLKNEDTATYFCAIRRLSITLHGMDYWGQGTSVTVS VL: DIQMTQSPASLSVSVGETVTITCRASENIYSNLAWYQQKQGKSPQLLVYGATNLADGVPSRFSGSGSGTQYSLKINSLQSEDFGSYYCQHFWGTPWTFGGGTKLEIK	binds
COXs-4H5 (antibody, V domains shown, Mouse-derived; tested at the screening stage) VH: EIQLVQSGPELKKPGKTVKISCKASGYTFTTYGMSWVKQAPGKALKWMGWINTYSGVPTYADDFKGRFAFSLETSASTAYLQINNLKNEDTATYFCAIRRLSITLHGMDYWGQGTSVTVS VL: DVVMTQSPLSLPVSLGDQASIYCRSSQRIVHSDGNTYLYWYLQRPGQSPKLLIYRVSNRFSGVPDRFSGSGSGTDFTLKISRVEAEDMGIYYCFQGTHFPYTFGGGTKLEIK	binds
COXs-7A7 (antibody, V domains shown, Mouse-derived; tested at the screening stage) VH: EVQLMESGGGLVKPGGSRKLSCAASGFTFSDYGMHWVRQAPEKGLEWIAYINSGSSTIHYADSVKGRFTISRDNAKNTLFLQMTSLRSEDTAMYYCVRPGFAYWGQGTLITVSA VL: DIVMTQTPLTLSTTVGQSAFISCRSSQSLLHRNGNTYLNWFLQRPGQSPQLLVYEIFERKSGVPDRFSGSGSGTDFTLKISRVEAEDLGVYYCMQATYEPLTFGAGTKLELK	binds
COXs-7E6 (antibody, V domains shown, Mouse-derived; tested at the screening stage) VH: EVQLMESGGGLVKPGGSRKLSCAASGFTFSDHGMHWVRQAPEKGLEWIAYINSGSSTIHYADSVKGRFTISRDNAKNTLFLHMTSLRSEDTAMYYCVRPGFAYWGQGTLITVSA VL: DIVMTQTPLTLSITVGQSAFISCRSSQSLLHRNGNTYLNWFLQRPGQSPQLLVYEIFERKSGVPDRFSGSGSGTDFTLKISRVEAEDLGVYYCMQATYEPLTFGAGTKLELK	binds
COXs-11E5 (antibody, V domains shown, Mouse-derived; tested at the screening stage) VH: EVQLVESGGGLVQPKGSLKLSCTASGFSFDTYAMNWVRQAPGKGLEWVARIRSKSKNYATYYADSVKDRFTVSRDDSANILYLQMNNLKTEDTAIYYCLRQGSFDYWGQGTTLTVSS VL: DVVMTQTPLSLPVSLGDQASISCRSSQRIVHTDGNTYLYWYLQKPGQSPKLLIYRVSNRFSGVPDRFSGSGSGTDFILKISRVEAEDMGIYYCFQGTHFPYTFGGGTKLEIK	binds
COXs-9D6 (antibody, V domains shown, Mouse-derived; tested at the screening stage) VH: EVHLVESGGGLVQPKGSLKLSCTASGFSFDTYAMNWVRQAPGKGLEWVARIRSKSKNYATYYADSVTDRFTISRDDSANILYLQMNNLKTEDTAIYYCLSQGSFDYWGQGTTLTVSS VL: DVVMTQTPLSLPVSLGDQASISCRSSQRIVHTDGNTYLYWYLQKPGQSPKLLIYRVSNRFSGVPDRFSGSGSGTDFILKISRVEAEDMGIYYCFQGTHFPYTFGGGTKLEIK	binds
COXs-12E7 (antibody, V domains shown, Mouse-derived; tested at the screening stage) VH: EVHLVESGGGLVQPKGSLKLSCKASGFSFDTYAMNWVRQAPGKGLEWVARIRSKSKSYATYYADSVKDRFTISRDDSANILYLQMNNLKTEDTAIYYCLRQGSFDYWGQGTTLTVSS VL: DVVMTQTPLSLPVSLGDQASIYCRSSQRIVHSDGNTYLYWYLQRPGQSPKLLIYRVSNRFSGVPDRFSGSGSGTDFTLKISRVEAEDMGIYYCFQGTHFPYTFGGGTKLEIK	binds
COXs-11H4 (antibody, V domains shown, Mouse-derived; tested at the screening stage) VH: EVQLVESGGGLVQPKGSLKLSCAASGFTFNTYAMNWVRQVPGKGLEWIARMRSESKNFATYYADSVKDRFTISRDDSESILYLQMNNLKTEDTGMYYCVRQGNFDVWGTGTTVTVSS VL: DVVMTQAPLSLSVSLGDQASISCRSGQNIVHTDGNTYLYWSLQKPGQSPNLLIYKVSNRFSGVPDRFSGSGSGTDFTLKINRVEAEDMGVYYCFQLTHVPYTFGGGTKLEIK	binds
